Measured values taken from patent US20150086558A1 (ACADEMIA SINICA, published 2015).

Assays:
[1] = biological target: T1, P1.15 peptide SVNPGLAGGSAQS (human); test: ELISA on coated synthetic peptide
T1 peptide: SVNPGLAGGSAQS

[2] = biological target: T2, P1 peptide, junction peptide of CH4-CεmX (SVNPGLAGGSAQSQRAPDRVL) (human); test: ELISA screen of hybridomas on coated P1 peptide
T2 construct: Synthetic peptide coated on ELISA plates at 10 ug/mL
T2 peptide: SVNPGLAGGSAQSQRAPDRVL
Experimental: Hybridoma cells secreting antibodies with the desired antigen-binding activities were screened as follows. Microtiter plates were coated by incubating with 10 μg/mL of P1 peptide and various other peptides or 1 μg/mL of various recombinant CεmX-fusion proteins in carbonate buffer, 0.1M, pH 9.6, overnight at 4° C. The wells were blocked with 1% BSA in PBS, pH=7.3 for 1 hour and incubated with the antisera or control antibodies at various dilutions for 1 hour at 37° C. After washing, the ligand-bound antibodies were detected by HRP-conjugated goat anti-mouse IgG, Fcγ fragment specific (Jackson ImmunoResearch) at 1:10,000 and incubated for 1 hour at 37° C., followed by incubation with TMB substrate (Clinical Scientific Products). The OD was determined at 450 nm. Positive clones were selected for further characterization.

[3] = biological target: T3, IgE.CH3-CH4 recombinant protein (UniProt P01854 211-426, limits assumed); test: ELISA on coated recombinant protein
T3 construct: domain: CH3-CH4; Recombinant protein coated at 1 ug/mL in ELISA
T3 sequence (P01854 211-426 limits assumed): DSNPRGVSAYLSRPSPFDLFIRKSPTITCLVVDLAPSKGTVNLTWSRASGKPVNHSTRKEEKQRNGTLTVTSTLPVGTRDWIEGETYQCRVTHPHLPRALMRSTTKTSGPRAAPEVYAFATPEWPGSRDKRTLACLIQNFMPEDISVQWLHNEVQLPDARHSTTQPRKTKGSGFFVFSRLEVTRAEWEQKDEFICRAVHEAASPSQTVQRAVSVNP

B1: monoclonal anti-IgE antibody mAb 2H9 (antibody, V domains shown)
VH: QVQMQQPGAELVRPGASVKMSCRTSGYTFTNYNVHWLKQTPGQGLEWIGGMYPGNDDILYNQNFKDRATLTADRSSSTAYIQLRSLTSEDSAVYYCTRSGLQGPWFDYWGQGTLVTVSA
VL: DIQMTQSSSYLSVSLGGRVTISCRASDHINNWLAWYQQKPGNAPRLLISSATSLETGVPSRFSGSGSGKDYSLTIISVQTEDVATYYCQQCWITPFTFGSGTKLEIK
notes: Mouse hybridoma monoclonal antibody from BALB/c mice immunized with HBcAg-P1; It was detected with anti-mouse IgG reagents
B1: binds [1]; binds [2]; no binding [3].

B2: monoclonal anti-IgE antibody mAb 5A8 (antibody, V domains shown)
VH: QVQLKQSGPGLVAPSQSLSITCTVSGFSLTDYGVNWVRQPPGKGLEWLGMIWGDGSTDYNSTLKSRLSISKDNSKSQVFLKINSLQTDDTARYYCALNWFAYWGQGTLVTAAA
VL: NIVMTQSPAIMSASPGEKVTMTCSASSSVNYMHWYQQKSGTSPKRWIYDTSKLASGVPARFSGSGSGTSYSLTISSMEAEDAATYYCQQWSSNPWTFGGGTKLEIK
notes: Mouse hybridoma monoclonal antibody; It was detected with anti-mouse IgG reagents
B2: binds [2].
